What all share (assay): flow cytometry
What all share (conditions): apparent Kd on cells; SPR at 25 C, His-KIT on CM5 chip, 50 mM NaOH regeneration; flow cytometry with 250 nM Cy5-aptamer in binding buffer with 1 mg/ml BSA and 1 mM yeast tRNA; salt …

The target of data set [1] is KIT on GIST-430 cells (human (GIST-430)) (UniProt P10721).
Data set [2] addresses KIT on GIST-430/654 cells (human (GIST-430/654)) (UniProt P10721).
Data set [3] deals with KIT on GIST-T1 cells (human (GIST-T1)) (UniProt P10721).

This is an account of results in PMC12439145.

Sequence of KIT on GIST-430/654 cells (human (GIST-430/654)) (P10721 26-976): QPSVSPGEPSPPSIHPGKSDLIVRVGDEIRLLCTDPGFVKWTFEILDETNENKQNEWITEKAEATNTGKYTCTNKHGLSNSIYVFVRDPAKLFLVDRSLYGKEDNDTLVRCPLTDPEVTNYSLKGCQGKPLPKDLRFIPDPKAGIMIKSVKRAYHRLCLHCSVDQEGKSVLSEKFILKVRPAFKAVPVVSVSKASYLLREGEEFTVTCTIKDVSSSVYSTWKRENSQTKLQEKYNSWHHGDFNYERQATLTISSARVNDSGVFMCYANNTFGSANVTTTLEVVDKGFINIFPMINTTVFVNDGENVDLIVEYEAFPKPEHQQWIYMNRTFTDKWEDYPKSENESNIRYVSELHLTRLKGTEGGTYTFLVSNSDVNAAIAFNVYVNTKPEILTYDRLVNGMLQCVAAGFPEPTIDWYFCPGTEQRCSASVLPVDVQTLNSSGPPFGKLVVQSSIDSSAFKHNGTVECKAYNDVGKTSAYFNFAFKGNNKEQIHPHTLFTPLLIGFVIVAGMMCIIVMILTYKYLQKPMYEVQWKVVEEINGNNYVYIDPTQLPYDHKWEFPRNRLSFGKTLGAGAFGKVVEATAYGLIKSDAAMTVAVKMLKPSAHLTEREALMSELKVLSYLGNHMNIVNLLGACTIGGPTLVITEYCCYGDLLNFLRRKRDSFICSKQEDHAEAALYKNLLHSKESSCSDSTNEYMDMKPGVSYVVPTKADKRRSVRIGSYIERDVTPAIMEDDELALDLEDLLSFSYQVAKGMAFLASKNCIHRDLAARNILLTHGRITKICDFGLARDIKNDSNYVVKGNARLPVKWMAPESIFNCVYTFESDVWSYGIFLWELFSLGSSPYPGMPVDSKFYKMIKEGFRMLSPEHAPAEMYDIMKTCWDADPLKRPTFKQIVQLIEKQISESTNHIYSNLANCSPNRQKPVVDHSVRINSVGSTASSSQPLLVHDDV
Sequence of KIT on GIST-430 cells (human (GIST-430)) (P10721 26-976): as above
Sequence of KIT on GIST-T1 cells (human (GIST-T1)) (P10721 26-976): as above

For the sequence “ATTCAAGGGGCCGGGGCAAGGGGGGGGTACCGTGGTAGGACATAGT [KIT-d]”, the Kd in data set [1] worked out at 41.6 nM; in data set [2], 109 nM; in data set [3], 76 nM.
